Measured values taken from publication PMC7840522, “Ca14-3-3 Interacts With CaWRKY58 to Positively Modulate Pepper Response to Low-Phosphorus Starvation”.
One block for each molecule: values may come before it.

Legend:
[1] = target: Ca14-3-3-GFP (pepper (Capsicum annuum)); assay: MST; 20 nM Ca14-3-3-GFP as target, CaWRKY58-6 × His as ligand serially diluted (1.0E^-10 to 1.0E^-3 mM), 10 min in interaction buffer, Monolith NT.115, 50% IR laser power, ambient temperature
CaWRKY58-6xHis = target: T1, CaWRKY58-6xHis (Capsicum annuum, UniProt Q5DJV3 1-378); assay: EMSA; not stated in the material (EMSA as in cited works; Cy5 probes, Odyssey CLX); details: protein: recombinant; tags: 6xHis (pDEST17; text says N-terminal 6xHis); label: Cy5
T1 sequence: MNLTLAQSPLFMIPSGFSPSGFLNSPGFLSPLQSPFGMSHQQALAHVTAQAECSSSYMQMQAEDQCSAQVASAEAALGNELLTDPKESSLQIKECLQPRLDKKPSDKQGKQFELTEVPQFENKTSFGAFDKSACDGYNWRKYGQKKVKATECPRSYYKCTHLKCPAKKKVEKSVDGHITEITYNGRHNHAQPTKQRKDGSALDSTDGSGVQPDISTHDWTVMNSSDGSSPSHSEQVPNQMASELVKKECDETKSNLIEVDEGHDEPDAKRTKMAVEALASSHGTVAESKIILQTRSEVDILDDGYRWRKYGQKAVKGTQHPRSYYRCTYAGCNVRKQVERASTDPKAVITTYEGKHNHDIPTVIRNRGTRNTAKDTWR

- Kd [1]: 210 nM
Molecule: CaWRKY58-6 × His (GFP fusion protein)

B1: mCaPHR1-P (mCaPHR1-Pcy5) (dsDNA)
DNA 1: AAACTATGCTCCTACATCTAAATTT
DNA 2: AAATTTAGATGTAGGAGCATAGTTT
- binding result (CaWRKY58-6xHis): no binding
